# Measured values from US6710165B2, “IgE-dependent histamine-releasing factor-binding peptides” (priority 2000, dated 2004).
# Experiments:
# RBL-2H3 cells [1] = assay: Histamine release by HRF (RIA); type: cell-based; conditions: IgE-sensitized RBL-2H3 cells, 20 μg/ml recombinant HRF
# Description: The full-length rat HRF sequence amplified by PCR was cloned in pRSET-A vector and then, overexpressed in E. coli. The expressed recombinant protein was purified using His-bound Ni column (Novagen) and used for stimulation of RBL-2H3 cells. RBL-2H3 cells were grown in 24-well plate at 1×10^6 cells, sensitized with rat IgE antibody (0.2 μg/ml, Serotec) for 45˜60 minutes and treated with 20 μg/ml of the recombinant HRF protein and the inhibitors as used above, respectively. The obtained sample was prepared to acylated histamine using RIA-analysis kit (Immunotech, France) and competitively bound to ^125I-acylated histamine and monoclonal antibodies. The sample was analyzed by γ-counter.
# RBL-2H3 cells [2] = assay: Intracellular Na+ concentration (sodium green fluorescence); type: cell-based; conditions: IgE-sensitized RBL-2H3 cells, HRF 10˜20 μg/ml
# Description: RBL-2H3 cells were loaded onto 24-well plate at 3.0×10^5˜1×10^6 cells/ml and cultivated at 37° for 18 hours. Hams F-12 culture (phenol red or serum-free 2 mM sodium bicarbonate and 10 mM HEPES, pH 7.3) was mixed with sodium green tetracetate dye (Molecular Probes, Eugene, Oreg.) at a final concentration of […] and the mixture was loaded onto the cells (Amorino and Fox, 1995). The cells were sensitized with 0.2 μg/ml of rat IgE (Serotec) for 45˜60 minutes and then, cultivated at room temperature for about 20˜60 minutes and washed three times with F-12 medium. Subsequently, thereto was added HRF (10˜20 μg/ml) in histamine releasing buffer and then, fluorescence was measured with microtiter reader (FL600, Bio-tek Instruments, Inc., Winooski, Vt.) at 485/530 nm for 15 minutes. The mixed solution of Na^+ and K^+ at an appropriate concentration was measured using gramicidin D (Sigma) as calibration (Amorino and Fox, 1995).
# PC12 cells [3] = assay: Inhibition of HRF-stimulated dopamine release by HRF-binding peptide; type: cell-based; conditions: 15 μg/ml of HRF
# Description: In order to confirm whether the peptides blocking histamine release by HRF also block neurotransmitters release in nerve cells, the peptide of SEQ ID No. 14 (p2) was tested for its effects on dopamine release stimulated by HRF according to the substantially same procedure as in Example 16.
# [4] = tested on: (Na,K)ATPase large cytoplasmic loop (CD3); assay: Yeast 2-hybrid analysis of HRF binding to (Na,K)ATPase large cytoplasmic loop; design: species or system rat; conditions: CD3 of (Na,K)ATPase α1 and α2 subunits as bait
# Description: The total cytoplasmic RNA was extracted from rat skeletal muscle and then, cDNA library for yeast 2-hybrid analysis was constructed by using pJG4-5 vector. CD3 region of (Na,K)ATPase α2 subunit was inserted to LexA DNA binding domain (pEG202 vector) and the inserts were used as bait for screening. Positive clones activating reporter gene were selected and sequence analyzed by sequencing, restriction mapping and BLAST search. Among those clones, one clone had the completely identical sequence with HRF.
# CD3 regions of (Na,K)ATPase α1 and 2 subunits were inserted to pEG202 vector and then, the interaction by isoforms was examined. Yeast cells containing LexAop-LEU2 and LexAop-LacZ reporter genes (EGY48/pSH18-34) were transformed with all the constructs as prepared above and then, grown in a selective medium plate.
# RBL-2H3 cells [5] = assay: Intracellular Ca2+ concentration (Fluo-3-AM); type: cell-based
# Description: RBL-2H3 cells were cultivated according to the same procedure as in Example 6 and then, washed with Krebs-Ringer buffer (KRH, 125 mM NaCl, 1.2 mM KH2PO4, 1.2 mM MgSO4, 6 mM glucose, 2 mM CaCl2, 25 mM Hepes, pH 7.4). Subsequently, they were incubated with 2 μM Fluo-3-AM (Molecular Probes, Eugene, Oreg.) and KRH buffer containing 0.2% BSA for 30 minutes and then, the culture was corrected with DMEM complete medium for 10˜30 minutes. Subsequently, the cells were washed with KRH buffer and sensitized according to the same procedure as in Example 6. After the sensitization, the cells were treated with HRF, anti-IgE (Serotec) and each inhibitor together with histamine releasing buffer (100 mM NaCl, 0.4 mM MgCl2, 5 mM KCl, 5.6 mM glucose, 0.1% BSA, 25 mM Hepes, pH 7.4) in the presence or absence of Ca^2+. The fluorescence of fluo-3AM was measured at 488/515 nm using laser scanning confocal microscope.
# PC12 cells [6] = assay: [3H]-dopamine release by HRF; type: cell-based
# Description: It was examined whether or not HRF functions as the inhibitor of (Na,K)ATPase enzyme to stimulate neurotransmitters release. For this purpose, HRF was added to the culture solution of PC12 cells (Abu-Raya, et al., 1999) and then, changes in [^3H]-labeled dopamine release induced in basal and K^+-depolarized state by addition of HRF were measured. PC12 cells from passage numbers 5 to 15 were cultured in RPMI-1640 medium containing 10% horse serum, 5% fetal bovine serum, penicillin (100 U/ml) and streptomycin (100 μg/ml) with the supply of 5% CO2 at 37° C.
# To measure [^3H]-dopamine release, one day prior to the experiment, the cells ([…]) were cultured in 12-well dish coated with poly-L-lysine (10 μg/ml). The fresh medium containing [^3H]-dopamine (0.5 μCi/ml) was loaded thereto and then, the cells were further cultured at 37° C. for 3 hours. They were washed 2 or 3 times with 1 ml of PBS(1×) per well. To Krebs Ringer (KR) buffer (125 mM NaCl, 5 mM KCl, 2 mM CaCl2, 10 mM HEPES, 1.2 mM MgSO4, 1.2 mM KH2PO4, 6 mM glucose, 5 mM NaHCO3), ascorbic acid (0.2 mg/ml), pargyline (0.6 mg/ml) and despiramine (2 μM) were added. Each 1 ml of the mixture was loaded with HRF and the reaction was proceeded at 37° C. for 20 minutes. The release in the depolarization state was measured in KR buffer containing 50 mM KCl, and in Ca^2+-free medium, was measured in KR buffer prepared by removal of CaCl2 with the addition of 0.5 mM EGTA.
# Upon completion of the reaction, the radioactivity of the released dopamine was measured after centrifuging the culture solution at 4° C., 1,000×g for 10 minutes. The cells were solubilized with 0.5 N NaOH and then, the radioactivity within the tissue was measured. The release rate (%) of dopamine was calculated by [radioactivity of the supernatant/(radioactivity of the supernatant+radioactivity within the tissue)×100].
# As compared with the increase in basal release, the increase in K^+-stimulated release was shifted to left, but the extent thereof was relatively small.
molecule,measurement,setting,value
"HRF: recombinant full-length rat HRF overexpressed in E. coli; protein consisting of 172 amino acids (protein, left off: small tags and cut ends, recombinant full-length rat HRF overexpressed in E. coli; protein consisting of 172 amino acids) MIIYRDLISHDELFSDIYKIREIADGLCLEVEGKMVSRTEGAIDDSLIGGNASAEGPEGEGTESTVVTGVDIVMNHHLQETSFTKEAYKKYIKDYMKSLKGKLEEQKPERVKPFMTGAAEQIKHILANFNNYQFFIGENMNPDGMVALLDYREDGVTPFMIFFKDGLEMEKC",histamine release,RBL-2H3 cells [1],histamine was released by HRF
same,effect on intracellular Na+ concentration,RBL-2H3 cells [2],increased the intracellular Na^+ concentration
same,increase of dopamine release,PC12 cells [3],about 110%
same,"HRF binding to (Na,K)ATPase CD3 in yeast 2-hybrid",[4],"HRF receptor corresponds to large cytoplasmic loop (CD3) of (Na,K)ATPase"
same,effect on intracellular Ca2+ concentration,RBL-2H3 cells [5],intracellular Ca^2+ concentration was increased
same,HRF concentration at which dopamine release was steeply increased and the cells detached and reached to death,PC12 cells [6],≥ 30 µg
same,K+-stimulated dopamine release in depolarization,PC12 cells [6]; 50 mM KCl,dose-dependently increased K^+-stimulated dopamine release
same,basal release of dopamine,PC12 cells [6]; basal state,dose-dependently increased the basal release of dopamine
same,dopamine release at HRF 10 μg,"PC12 cells [6]; basal, HRF 10 μg",increased to the extent similar to the K^+-stimulated release in depolarization
